In the supplement of paper PMC9112550, “Optimization of the antimicrobial peptide Bac7 by deep mutational scanning” (BMC Biology, 2022):

System: Escherichia coli TOP10
Assay: shrunken log2 fold change of peptide-encoding DNA abundance (4.5 h post-induction vs induction); higher = less antimicrobial activity (less host growth inhibition)
Conditions: time post-induction: 4.5 h; library: site-saturation at positions 5, 18, 19, 20
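Note: peptides expressed intracellularly from a pBAD plasmid library in pooled LB shake-flask culture, induced with 0.3% L-arabinose, DNA abundance read by NGS, three biological replicates, DESeq2 with apeglm shrinkage.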

Sequence	shrunken log2 fold change
RRIRDRPPRLPRPRPRPSSPPRP	-0.341
RRIRKRPPRLPRPRPRPKDGPRP	0.0893
RRIRYRPPRLPRPRPRPYVYPRP	-0.26
RRIRIRPPRLPRPRPRPERYPRP	-0.175
RRIRLRPPRLPRPRPRPVSAPRP	0.0663
RRIRWRPPRLPRPRPRPLRRPRP	0.587
RRIRIRPPRLPRPRPRPRGHPRP	-0.114
RRIRLRPPRLPRPRPRPWKGPRP	0.0434
RRIRQRPPRLPRPRPRPIERPRP	-0.0353
RRIRFRPPRLPRPRPRPVMHPRP	-0.461
RRIRMRPPRLPRPRPRPFFNPRP	-0.0839
RRIRIRPPRLPRPRPRPVIMPRP	-0.334
RRIRHRPPRLPRPRPRPLTAPRP	-0.0931
RRIRGRPPRLPRPRPRPHRSPRP	0.188
RRIRDRPPRLPRPRPRPRLHPRP	0.11
RRIRPRPPRLPRPRPRPINKPRP	-0.641
RRIRVRPPRLPRPRPRPQPPPRP	0.298
RRIRVRPPRLPRPRPRPYEAPRP	-0.157
RRIRVRPPRLPRPRPRPGCPPRP	0.181
RRIRFRPPRLPRPRPRPMGSPRP	-0.22
RRIRERPPRLPRPRPRPQVSPRP	-0.0262
RRIRPRPPRLPRPRPRPSYHPRP	-0.641

Sequence	shrunken log2 fold change
RRIRERPPRLPRPRPRPNFSPRP	-0.114
RRIRQRPPRLPRPRPRPLSMPRP	-0.262
RRIRTRPPRLPRPRPRPWFFPRP	-0.0908
RRIRLRPPRLPRPRPRPCCFPRP	-0.0513
RRIRMRPPRLPRPRPRPRINPRP	0.19
RRIRMRPPRLPRPRPRPLQYPRP	-0.106
RRIRNRPPRLPRPRPRPHEKPRP	-0.0437
RRIRDRPPRLPRPRPRPQMWPRP	-0.23
RRIRARPPRLPRPRPRPDPNPRP	0.531
RRIRHRPPRLPRPRPRPIWFPRP	1.65
RRIRPRPPRLPRPRPRPACTPRP	0.163
RRIRARPPRLPRPRPRPRHRPRP	0.412
RRIRYRPPRLPRPRPRPIATPRP	0.0782
RRIRCRPPRLPRPRPRPPSLPRP	0.413
RRIRARPPRLPRPRPRPYGVPRP	-0.12
RRIRCRPPRLPRPRPRPWEGPRP	-0.00146
RRIRNRPPRLPRPRPRPIQLPRP	-0.203
RRIRDRPPRLPRPRPRPNLNPRP	-0.229
RRIRLRPPRLPRPRPRPMWMPRP	-0.00116
RRIRLRPPRLPRPRPRPPSGPRP	0.0718
RRIRVRPPRLPRPRPRPGMGPRP	0.0724
RRIRNRPPRLPRPRPRPLEIPRP	0.000705

Sequence	shrunken log2 fold change
RRIRQRPPRLPRPRPRPPDIPRP	-0.0497
RRIRPRPPRLPRPRPRPSIGPRP	0.166
RRIRKRPPRLPRPRPRPYWSPRP	-0.153
RRIRARPPRLPRPRPRPQHIPRP	-0.0675
RRIRQRPPRLPRPRPRPMVIPRP	-0.105
RRIRMRPPRLPRPRPRPDMQPRP	2
RRIRCRPPRLPRPRPRPIGQPRP	0.0567
RRIRCRPPRLPRPRPRPMFFPRP	-0.399
RRIRFRPPRLPRPRPRPREEPRP	-0.0431
RRIRLRPPRLPRPRPRPTMQPRP	-0.0477
RRIRIRPPRLPRPRPRPHNVPRP	-0.414
RRIRKRPPRLPRPRPRPQTAPRP	0.385
RRIRYRPPRLPRPRPRPDCWPRP	-0.105
RRIRVRPPRLPRPRPRPTQLPRP	0.504
RRIRTRPPRLPRPRPRPHKNPRP	-0.415
RRIRRRPPRLPRPRPRPFHPPRP	0.111
RRIRARPPRLPRPRPRPVETPRP	0.759
RRIRTRPPRLPRPRPRPKTCPRP	0.012
RRIRRRPPRLPRPRPRPAQMPRP	0.161
RRIRGRPPRLPRPRPRPTNWPRP	0.485
RRIRTRPPRLPRPRPRPQGIPRP	0.0112
RRIRRRPPRLPRPRPRPCVVPRP	0.152

Sequence	shrunken log2 fold change
RRIRCRPPRLPRPRPRPGIMPRP	-0.594
RRIRRRPPRLPRPRPRPWHPPRP	0.0925
RRIRQRPPRLPRPRPRPKAYPRP	0.0697
RRIRHRPPRLPRPRPRPQAVPRP	0.00884
RRIRKRPPRLPRPRPRPKVYPRP	-0.124
RRIRTRPPRLPRPRPRPNRPPRP	0.00512
RRIRSRPPRLPRPRPRPMDLPRP	0.0372
RRIRKRPPRLPRPRPRPHQVPRP	-0.182
RRIRQRPPRLPRPRPRPSHSPRP	-0.102
RRIRRRPPRLPRPRPRPHVAPRP	-0.138
RRIRERPPRLPRPRPRPFKQPRP	-0.0138
RRIRKRPPRLPRPRPRPTRMPRP	0.651
RRIRMRPPRLPRPRPRPPWNPRP	0.369
RRIRARPPRLPRPRPRPGWIPRP	0.161
RRIRARPPRLPRPRPRPIGSPRP	-0.0508
RRIRPRPPRLPRPRPRPYCEPRP	-0.337
RRIRNRPPRLPRPRPRPSGVPRP	-0.0499
RRIRDRPPRLPRPRPRPDMPPRP	-0.0262
RRIRPRPPRLPRPRPRPVQIPRP	-0.13
RRIRMRPPRLPRPRPRPYQEPRP	-0.0194
RRIRWRPPRLPRPRPRPVYWPRP	0.14
RRIRPRPPRLPRPRPRPQCQPRP	0.00656

Sequence	shrunken log2 fold change
RRIRIRPPRLPRPRPRPYDTPRP	-0.0277
RRIRYRPPRLPRPRPRPDEGPRP	-0.226
RRIRVRPPRLPRPRPRPHPEPRP	-0.155
RRIRSRPPRLPRPRPRPGLTPRP	0.264
RRIRQRPPRLPRPRPRPSKYPRP	-0.0779
RRIRCRPPRLPRPRPRPLRLPRP	0.0282
RRIRRRPPRLPRPRPRPFMTPRP	0.0665
RRIRCRPPRLPRPRPRPVNWPRP	0.393
RRIRGRPPRLPRPRPRPTAWPRP	1.84
RRIRPRPPRLPRPRPRPNRFPRP	-0.0502
RRIRHRPPRLPRPRPRPQTMPRP	3.11
RRIRSRPPRLPRPRPRPYVVPRP	-0.314
RRIRWRPPRLPRPRPRPTKCPRP	-0.121
RRIRRRPPRLPRPRPRPVFIPRP	-0.0708
RRIRGRPPRLPRPRPRPLHMPRP	0.379
RRIRYRPPRLPRPRPRPQKIPRP	-0.524
RRIRIRPPRLPRPRPRPTHIPRP	-0.495
RRIRVRPPRLPRPRPRPSGEPRP	0.0818
RRIRERPPRLPRPRPRPDMRPRP	-3.48e-05
RRIRSRPPRLPRPRPRPMYDPRP	0.0313
RRIRLRPPRLPRPRPRPGAMPRP	0.34
